Laboratory results published in US20050074854A1 (TRIPEP, published 2005).

Biological target: gp120 of HIV-1 IIIB (on virus) (HIV-1 IIIB)
Assay: cell-based or functional assay

QFHWKNSNQIKILGN [CD4 peptide Seq. Id. No. 4 without the coupled sugar]
< 0.3 fraction neutralized (0.3 = 30%): neutralization of HIV-1 IIIB (reduction of syncytia/PFU, U87/CD4 cells); CD4 peptide alone, 0.1 ug/ml | neutralization of HIV-1 IIIB (reduction of syncytia/PFU, U87/CD4 cells); CD4 peptide alone, 1 ug/ml | neutralization of HIV-1 IIIB (reduction of syncytia/PFU, U87/CD4 cells); CD4 peptide alone, 10 ug/ml

NSNQIKILGNQGSFL [CD4 peptide Seq. Id. No. 5 without the coupled sugar]
< 0.3 fraction neutralized (0.3 = 30%): neutralization of HIV-1 IIIB (reduction of syncytia/PFU, U87/CD4 cells); CD4 peptide alone, 0.1 ug/ml | neutralization of HIV-1 IIIB (reduction of syncytia/PFU, U87/CD4 cells); CD4 peptide alone, 1 ug/ml | neutralization of HIV-1 IIIB (reduction of syncytia/PFU, U87/CD4 cells); CD4 peptide alone, 10 ug/ml

QGSFLTKGPSKLNDR [CD4 peptide Seq. Id. No. 7 without the coupled sugar]
< 0.3 fraction neutralized (0.3 = 30%): neutralization of HIV-1 IIIB (reduction of syncytia/PFU, U87/CD4 cells); CD4 peptide alone, 0.1 ug/ml | neutralization of HIV-1 IIIB (reduction of syncytia/PFU, U87/CD4 cells); CD4 peptide alone, 1 ug/ml | neutralization of HIV-1 IIIB (reduction of syncytia/PFU, U87/CD4 cells); CD4 peptide alone, 10 ug/ml

KILGNQGSFLTKGPS [CD4 peptide Seq. Id. No. 6 without the coupled sugar]
< 0.3 fraction neutralized (0.3 = 30%): neutralization of HIV-1 IIIB (reduction of syncytia/PFU, U87/CD4 cells); CD4 peptide alone, 0.1 ug/ml | neutralization of HIV-1 IIIB (reduction of syncytia/PFU, U87/CD4 cells); CD4 peptide alone, 1 ug/ml | neutralization of HIV-1 IIIB (reduction of syncytia/PFU, U87/CD4 cells); CD4 peptide alone, 10 ug/ml
